Measurements taken from publication PMC4259887.

Tests used:
[1] = target: E2s mutant Ser527 to Ala (Hepatitis E virus (HEV)) (UniProt Q81871); assay: non-reducing SDS-PAGE; wild type E2s and its Ala mutants (expressed in E. coli) on non-reducing SDS-PAGE; dimer or monomer band
[2] = target: E2s, protruding homodimer domain of HEV capsid protein (wild type) (Hepatitis E virus (HEV)) (UniProt Q81871); assay: as above
[3] = target: E2s mutant Asn560Ala (Hepatitis E virus (HEV)) (UniProt Q81871); assay: as above
[4] = target: E2s mutant Gln531 to Ala (Hepatitis E virus (HEV)) (UniProt Q81871); assay: as above
[5] = target: E2s mutant Pro604 to Ala (Hepatitis E virus (HEV)) (UniProt Q81871); assay: as above
[6] = target: E2s mutant Gln568 to Ala (Hepatitis E virus (HEV)) (UniProt Q81871); assay: as above
monoclonal antibody 8C11 = assay: CLIA (chemiluminescent immunoassay); conditions: rE2-coated microplate; 8C11-HRP only; parent: est. 1.0e7; read off a plot
[7] = target: E2s mutant Ile529Ala (Hepatitis E virus (HEV)) (UniProt Q81871); assay: non-reducing SDS-PAGE; wild type E2s and its Ala mutants (expressed in E. coli) on non-reducing SDS-PAGE; dimer or monomer band
[8] = target: E2s mutant Thr489 to Ala (Hepatitis E virus (HEV)) (UniProt Q81871); assay: as above

**Q.** How did the stoichiometry N [1] turn out when “E2s mutant Ser527 to Ala (from UniProt Q81871 455-603) (domain or fragment)” was run?
**A.** 2

**Q.** “E2s, protruding homodimer domain of HEV capsid protein (wild type) (from UniProt Q81871 455-603) (domain or fragment)” was tested. Which stoichiometry N [2] did it give?
**A.** 2

**Q.** “E2s mutant Asn560Ala (from UniProt Q81871 455-603) (domain or fragment)” was tested. Which stoichiometry N [3] did it give?
**A.** 2

**Q.** How did the stoichiometry N [4] turn out when “E2s mutant Gln531 to Ala (from UniProt Q81871 455-603) (domain or fragment)” was run?
**A.** 2

**Q.** How did the stoichiometry N [5] turn out when “E2s mutant Pro604 to Ala (from UniProt Q81871 455-603) (domain or fragment)” was run?
**A.** 2

**Q.** “E2s mutant Gln568 to Ala (from UniProt Q81871 455-603) (domain or fragment)” was tested. Which stoichiometry N [6] did it give?
**A.** 2

**Q.** For “E2s, protruding homodimer domain of HEV capsid protein (wild type) (from UniProt Q81871) I529A”, which response (monoclonal antibody 8C11) is on record?
**A.** 9.7e+06 RLU/s

**Q.** With “E2s mutant Ile529Ala (from UniProt Q81871 455-603) (domain or fragment)” as the substance, how does the stoichiometry N [7] read?
**A.** 2

**Q.** With “E2s mutant Thr489 to Ala (from UniProt Q81871 455-603) (domain or fragment)” as the substance, how does the stoichiometry N [8] read?
**A.** 2

**Q.** “E2s, protruding homodimer domain of HEV capsid protein (wild type) (from UniProt Q81871) N560A” was tested. Which response (monoclonal antibody 8C11) did it give?
**A.** 8.7e+06 RLU/s
